Experimental findings from the DeepSol protein solubility set are described below.

The data set is described as follows: soluble on expression in E. coli; label from the status in PepcDB or PDB records.
Consider “MAHHHHHHMKRLIQSLQHFSVTSSEHVELFSKITLRDFGFYVSDADAMRYVADEAYSIAERAFQLENALHQHRLSASTAQVSPMAWKSSSNDTVGCSTLYQDEAVTLCWFVLPPGKVLPLHDHPGMTVWQRAMHGRLHLCSITREAVSQTSTGASTAPINGTVVFDGELDGVGDAIPASDVLGFTPTDGDGGGMLHEIRNIDATQPALFVDIISPPYNQASSSMVCGYYTAEPLNATATLLPALAADCGVRHQLKAGDKVRLRPRTNYSGPAMNAFLHVV”, for which the “soluble on expression in E. coli” value is given as “not soluble”.

Take “MAHHHHHHMLAGLLRGIRAATAPQRSRRRFLPRMRQRSSFSAVSSAAMFKNTLTTQRAQKGDYGFNVFHNSNPQHGGSYARHERRMREDEVEDFLKSVKHWRPLHEDVADGDLVDDAQSSSSTSAPAAGPPMPRLARMGEEAIMRTFQFETFREAYLFMGRVWAFCYGSDKYPHVTWEGTALTVYLYSSSFRGLSKREARVAAFLNDQYNMLRKSKWQQRRIVDGIVRQSAVEELLGEEVAAHLAHRETLRTAPLQEVQDGPRSWRSAIGSPLRSPNSGSDGAGSSMGVRES”: the “soluble on expression in E. coli” value is reported as “not soluble”.

Turning to “MAHHHHHHMLCLVRAAEPKPYTALSPEALYEAVQPHDHTLRPSPFIAHQALMDFYKACDGYYGVNREEVDVQQLTSFEHKKTHGGASSGNNSGSNSGATLSSLLSGSASAAPSSSLSAAAGAPPLPPLPSPDDPNLAEKLNDYRIAQLRRNAQHVDNTVYHAHNSSNGGSNSNVANAGSSGVCHFYRTPEGCQRGAACPFTHLDKHGQPVNRVAKS”, the “soluble on expression in E. coli” value is reported as “soluble”.

In the case of “MAHHHHHHMLCRNVSRSYSARRRCRPSVCVAFGALLVEPPQAAYLRRCAVSSRATATAASLSSDHASLSVCKRCEHTTTIATPPERVLTTKEQVDELMDSFAEACELITDAKESVGTTYFADDMEDAEKQTHDVLNRWESLQAALERKGTAEELQKVRNMYDLKIKQLKAELEAVREAGGAG”, the “soluble on expression in E. coli” value is “not soluble”.

On to “MAHHHHHHMLHGNWKYLRQGGRQWMEKQARDPFVLEARRRGYVARSAFKLLEMDDKFGLFARNHTRVVVDIGCSPGGWLQVARERCGDRCALFGVDLLHVSPTVTGAVCIQGDFTDMAIQQQLLSRMENVHANGLVDVVMSDMCLNRGSGGTDDRQKQMQLNMEALAFATSQLRTGGNFVCKVLGTPTAFEELRGELQRWFVRSSLCKPFSSRRGSDEAFMVCLAKRETPRPRGCNIAEGETRDFGLDDWPGFLRRPRQKR”, for which the “soluble on expression in E. coli” value is given as “not soluble”.

Regarding “MAHHHHHHMLKKGFTATKIIGKRCFQWWDNLNTSWKFAIGFSVLFPPLWNYNERRKAREKQVYYNKSIKDYVFFDIAIENKYVGRVLIGLYSDQVPLSVENFIQLAEGYKVKDKYIGYRNTFIHKIYPGIGLVGGNVLNDKEGLSIYGKKFPDENFDMEFVQDGDVALFNEGPHSNSSQFIITFSPMPILHKHNVVIGTVLKGMDIIRMIENVGTKLGNPMYNVKIINCGLYRSLEQDGPPFFNMLHISDKGNKNIISKKEFENLSEQQRQSLMEEIGKSEKQR”, the “soluble on expression in E. coli” value was “not soluble”.

Consider “MAHHHHHHMLQQLNEEKNIRKALESRIREVNVSLRRYGVCIADAKEVTNESREFSEATDAFILAALEEKDTMDGDLCAKLQQQLRVKQRLTELRHQHQRKLDDMLRKYELIKTGRTTANNGAGADNNMLHPGLVDEAAAQQIKELLHRKDEEIERVIKEKEKTCDRIVKKLNKCELRIKELEATLEEERVQSTEERQELDRENRELQRYNQQLSVELETLRGQLSEMKEEMDFMERAKSAEIERWKEEAANGAGRLEEMRFKMAAYSELQKSYDRLQEQLQRTEVSLKEKSDNLENTRQMVKWSNSLLATEKQKVEQMEMMLKQQEVEMRRREEQLKSEMMNDINKQVAANNRRMQEQAAQYQELISQEQDKQKSIMKKVKSSRKETQKAAQRYDEMILENEALLSKLEELKVTSMRIFLEKQEAQRELEALRPTKHVANRRL”, for which the “soluble on expression in E. coli” value is listed as “not soluble”.

Consider “MAHHHHHHMLQRLQLFRSTLVNFLEWRNFSDVVHGCYVRVLLEMRSTEENRRESPDNYYIALVKGAQRGPVYSGFSADAVTTEWHIVIELPPCFRSTQNGNVVQLNSISNSPFRQAEYQNWVDMTNETRELSFPSLPQLQFRLGMLEEHKQQALTPEPRRHRNGEDAEAAALREWALEEKRKRITEEIMVTHVKLRRIDQLKALSLEDLQEVEREILDLITGVRISINERSKCMLCHNRICTEICYPCKHQVLCKDCAKSIRGRCPAPKCKTPVQYTFEAFTS”, for which the “soluble on expression in E. coli” value is listed as “not soluble”.

On to “MAHHHHHHMLQWEWPTSLCAERRELIRAAVERAIRNSMAEGSDGQIRGTVNVDELNLGSNPPEVTLSGIRMLSAERTVIMVKVRYTGDFFIRLSGLEVNLDMVGSGAEEADNNFALPFFCPFEMTLRDILIDGMVAIEILQELEENVQWGKCADVPVAPLATTVRSRKNTNGMRPPCRAGTPSTRHRSGYGVLLGGGGRGAMRLPGVLDSIDGSLSSVDMEGASEGHPRHSLRVRNVSPPFFDILSTKVLVKQRVVKMQLFGDPLKSFRVLSNFGSVQGADCKAEQTIRKLIKPAIEQLIEEGIIFNI”, for which the “soluble on expression in E. coli” value is recorded as “not soluble”.

For the sequence “MAHHHHHHMLRFTVPALVVFQNAYAPRVLNRMTPDRMELTMLILKERKKKVRYLGSNFQGFNDRVHLFNAQGGVRRGTRYIIETHHNRIQFKHRSRNNSMVDVRAVKMAGSQYDSIGNYTRMTWDNSLCTTNLLSDPNFKRHFKNMPKEETIGVLEEWGVRYILLDEIRKPSLMDCKYHKHHLYADKFWWSPSPETNHMRGDAEFKWKGNELIAYGDYNAHMQHPANFVTSSSSGSSGSGAATSKSAAAAAGSKKGASARPWFRRTVVVRKSQASDTKPLSTASKIAAAGTSK”, the “soluble on expression in E. coli” value is listed as “soluble”.

Regarding “MAHHHHHHMLRHCTAHRRYRTAWRELLHPLPVRARKMEWLKRDAVEENEEILRRPYYTIKSYALPPAVGRQESIHNSNNIRGGMHSSHSLDLIMRQPRRVKTPEQLQALRDRLRFIGVTGPMPQATSVSTKSYADTYGSRLRPRYPESWDTVPPHQPSRELL”, the “soluble on expression in E. coli” value is “soluble”.

In the case of “MAHHHHHHMLRITPSRYASKVTAGNAKNQAGSPRQKAKLFHVIPGTPVTPVEKLKEQRRRFGQDRYSRQPEYRPGRNVRMDPNTFTLYATTKGVMTIRTSRINPSYKWLDVEPDIQKVYRSRCMRAALQARGKASMMVAGNVHYRAELDHVTEPHWRERVMRVPKATERFQDPNYFTRGLVPSLRPLSRYSYE”, the “soluble on expression in E. coli” value is reported as “soluble”.

Consider “MAHHHHHHMLRRVSLSALVQRVAAGAVIATAGRTIVVFSQQHHILESNQRARNSPSNVWIEDWEADRLGMKPEPGALPTQLVLDKQLELFNFDQLLSPPEVMEAPKHSSYSSRKVYGERLQFELNDRAQRHSYQSKWWITRGQAYKENLQFKANARSSILLTKSQIKLFHSSQLSGGEALQQYPVSGGSRRVYSKKGEAFQLLQDHIKSNDFNSGLYFTRRQMEFFKLAPLPDQVPVVQEAATGDRHLIYNVDQLEDPHLALKTLQRAPVNVPTFLLSGEPIMSENTRKFPKTFRSNYWLTGRDAELYQWPIKESERRRGVPFSTGTSAPVQYELFNVEQLSNPDEAFARAGLLIQ”, for which the “soluble on expression in E. coli” value is “soluble”.

For “MAHHHHHHMLSIGMTAMDTEGDVTQMELSALLVHIERCERLLRHPTLLSRLPDEGETIRSRHALYVAERSRREVGGDASSSRKENDAVEGSVRQVERQISQMTLSTEEKSEKTATMPMECHASLNTDGWTVGAGGKAVESYEDVARAVGEKHRHSRIPVEMIVRQTFGGSLCEAEIQRMLCDVPPNFFLTHDETISMQRKLLSEERLEALTRLRNQRHAEL”, the “soluble on expression in E. coli” value is “not soluble”.

Turning to “MAHHHHHHMLSPTPLLQRYRLFHPCRENIPLHMNPAKSMFPLINSNNLLAKPRSNWQDFSGRKEFDEDHPLPVVASRLNERTTQHKWSHWDQYLNPQITQSVRDLTPTPEYVGMRSGHNMIKMGWMKIGGSWKYSRGYNDRRRVFARGQWQERKMTPRFMLAPRVSPGGPRNRYEGKLVFSRLKLSKLLWAIDTGRLNPNEVITVYHLHEAGVVAEGEIVWPGFVLISSGVSRVPYPIHIELQNASAESIRLIEEAGGSFTGVYMTHDGLYQELHPEEYPVFPEQEFPERKGLEGLATNPAKRGWLVRWYEDEGKYAHPEAGRRYSHYVRPPTERDFPATVGEYEMVKHHQKWHLNQPGTGTLLPWHSYNTADLLKRSAGRV”, the “soluble on expression in E. coli” value was “not soluble”.

On to “MAHHHHHHMLTSTAYGMELQARAIAPFYHSSNNSSSTHRFVAGTACFAGGNVIRLLTFQEESQLLECTATWSHEEEIFGLWSSPSVAGPSLLAVGASSYCRIFRVSDDVSGELEPVVNFNAAAAQVLWDLEGLQNEVKLISEDSLRIYSLTEGKMGEEIGRFRVDGCAELRCAALDPHHSSVCLAAGEGIGIAVIDTRRKGPIVMPNTTTLHGLGMIQSIDFSNAREGLFMTAGTDGVIMWHDFRMDGEKSVVERRGYLDAHDHCVQRSLFNPFHDELLISCGSDHTLKLWDTSKKGADGECAVCVSKLSDFAESVVACCWSNSNPWVFAGLSYNGRVLVDSVPEECKMQFIGKEG”, for which the “soluble on expression in E. coli” value was “not soluble”.

Consider “MAHHHHHHMMDDQSSTSGGPQEGRDADHRQNHGNVLFVGNLPFQTPWQHVKDHFRKAGKVRYTDLIADRMGRPKGSALVTMVTAEGAQRAIRMYNETDFEGRRLIVRLFDDGPRPPIVQRGMMPQYDRQTQQQQPQQQSQRFRGYTGASSGGSNYNNTTNFGRRADYMGRGGYTMEEDLNATSLNDMGDSVPKPRSQQVNEFGRKLFVSNLPFDCTSSALRETFQQVGNVERAEVILGRNGKSRGMGIVVMRTEKETRLAIEEFDGIEMANRAMSVRLDNKTTA”, for which the “soluble on expression in E. coli” value was “soluble”.

As to “MAHHHHHHMNEKNKDINKYTSTNNMYKLSENNHKSLLENLKRRGIIDDDDVYNTMLQVDRGKYIKEIPYIDTPVYISHGVTISAPHMHALSLKRLINVLKPGSRAIDVGSGSGYLTVCMAIKMNVLENKNSYVIGLERVKDLVNFSLENIKRDKPELLKIDNFKIIHKNIYQVNEEEKKELGLFDAIHVGASASELPEILVDLLAENGKLIIPIEEDYTQVLYEITKKNGKIIKDRLFDVCFVSLKKN”, the “soluble on expression in E. coli” value is given as “not soluble”.

Turning to “MAHHHHHHMNNSSAVATGDNPQLQKPMIYKNRARSIVHRSVRNGSENQLTEQANGTSIRDKIRRLFSSKHDQTIRDMQKTKLTKNKSIQEQEPSERNVDGFLSTDHQSVEWQPVYRETCKIKLPVEEGATKIAMPEEVLDDWVHSQHKISQQLGRRKGGEFVQDNQSLGDHDQGDDLLELGGDCLLGKNASRKSCNLKSTEDQYSKFKYYYNYYLVDEYLESLAASPNKELDATGLDEHGQLYDNVSLNARPIIVSKQRLESGVPYDPSKLLQ”, the “soluble on expression in E. coli” value is reported as “not soluble”.

Consider “MAHHHHHHMNQDLDKELREALQQDKYDLQLFLRFLKSYVVSGSQPEKQLLLGILLQALPRFHTSDFSACISLISSHVQDASYIEKDIILIYDLENYLSSGNFPQFWQVWRESEGTLPARPSFEPNMRAAILTVIGCTLGHIQTKDLSVYLGLKSGEKLEEVLREAARIAGDAVQLVGADEQAVVFQKSVFNAPESDSNQELKRFSDTVTIVSL”, for which the “soluble on expression in E. coli” value is on record as “soluble”.

Regarding “MAHHHHHHMNQVIRSRTDWKERVVLRLAWITASRWSEIAALTPNNLKLKTDGTLILYWPVAPKTARTDPHRASRFVRIRGQDAFDIIKLCRTLQHIEKLTNLTTARVERALAPWNATAHSIRRGALRHAAQIVEAYNLNPHVISQLAKHVDPFDLPQNTVRYLGNCTTMLTQVLSLVALM”, the “soluble on expression in E. coli” value is given as “not soluble”.

In the case of “MAHHHHHHMNRKRPRSPAGVQYWLMKSEPNKFSIDDLKKCTRSPWDGVRNYAARNNMKLMKVGDCVLFYHSNAKPSGVVGLASVVKTAYPDHTALDPKSEYYDARASKKNPWEMVDVQFEEKFASIVSLEELKKEKKLQAMQLFSQSRLSVQPVEKSEYDHVVSLGRKK”, the “soluble on expression in E. coli” value is on record as “soluble”.
